Measured values published in the supplement of paper PMC10065799, “High-throughput profiling of sequence recognition by tyrosine kinases and SH2 domains using bacterial peptide display” (eLife, 2023).

molecular target: EPHB2 (UniProt P29323); experiment: phosphorylation enrichment, bacterial display (enrichment ratio); higher = better substrate or ligand; peptides without Tyr show the background
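Throughout, for SH2 binding enrichment of the phosphorylated peptide, bacterial display: peptide library displayed on the E. coli surface as eCPX fusions, selected cells deep-sequenced, score is each peptide's frequency after selection divided by its frequency in the input.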
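Throughout, for phosphorylation enrichment, bacterial display: 11-residue human phosphosite peptides and single-mutation variants displayed on the E. coli surface, counted by deep sequencing, each peptide's frequency after selection divided by its frequency in the unselected input library; frequency after pTyr selection over input frequency; kinase dosed for 20-30% of maximal phosphorylation in three min.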

Chain of EPHB2 (P29323 whole entry, looked up, the tested form may be a part): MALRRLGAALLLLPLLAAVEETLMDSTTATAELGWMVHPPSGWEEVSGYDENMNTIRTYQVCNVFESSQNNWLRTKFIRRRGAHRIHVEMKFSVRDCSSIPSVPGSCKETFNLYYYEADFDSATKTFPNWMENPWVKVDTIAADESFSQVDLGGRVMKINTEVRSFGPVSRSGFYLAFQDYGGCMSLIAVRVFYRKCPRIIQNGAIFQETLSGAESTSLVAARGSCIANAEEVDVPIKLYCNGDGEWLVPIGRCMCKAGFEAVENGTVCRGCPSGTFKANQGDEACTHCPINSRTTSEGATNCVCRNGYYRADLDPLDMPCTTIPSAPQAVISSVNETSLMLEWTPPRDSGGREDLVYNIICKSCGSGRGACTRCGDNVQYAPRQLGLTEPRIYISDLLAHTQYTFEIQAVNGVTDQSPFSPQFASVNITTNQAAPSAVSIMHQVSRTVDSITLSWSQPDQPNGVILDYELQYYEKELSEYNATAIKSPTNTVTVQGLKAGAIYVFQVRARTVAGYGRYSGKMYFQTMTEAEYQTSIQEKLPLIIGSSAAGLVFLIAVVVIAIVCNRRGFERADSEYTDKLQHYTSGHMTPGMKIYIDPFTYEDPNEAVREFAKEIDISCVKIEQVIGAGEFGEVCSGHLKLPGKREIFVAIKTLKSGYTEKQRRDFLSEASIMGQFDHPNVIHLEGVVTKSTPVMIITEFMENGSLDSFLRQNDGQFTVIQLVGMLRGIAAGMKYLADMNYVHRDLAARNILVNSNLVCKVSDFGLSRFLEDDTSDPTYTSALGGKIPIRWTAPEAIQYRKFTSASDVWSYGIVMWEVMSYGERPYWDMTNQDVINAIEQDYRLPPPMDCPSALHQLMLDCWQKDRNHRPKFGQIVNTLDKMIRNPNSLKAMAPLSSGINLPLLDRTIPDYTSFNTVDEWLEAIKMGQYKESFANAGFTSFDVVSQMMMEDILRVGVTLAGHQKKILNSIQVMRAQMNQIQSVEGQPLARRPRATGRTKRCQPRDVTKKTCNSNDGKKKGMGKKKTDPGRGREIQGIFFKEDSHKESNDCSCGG

First: MDDKEYFSVHN [MET_Y1234_Y1230D_YF]
Second: RNDLDYMDSRR [GAA_Y407_W402R]
The phosphorylation enrichment of the first is higher: 0.587 for the first, 0.408 for the second.

Going from PELINCHQHNS [BTK_Y361_Y361C] to KGVDRYNPENL [EIF3K_Y21_I18V], the phosphorylation enrichment falls from 0.9 to 0.648.

Compared with ANVIRYFPTQA [SLC25A4_Y81], STQAHYRLSAF [ADAMTS9_Y100_S96T] is lower in phosphorylation enrichment: 0.502 for the first, 0.381 for the second.

Going from RIVEIYSRSLQ [GCH1_Y175_R178S] to WQQQSYLFSGI [CTNNB1_Y30_D32Y_YF], the phosphorylation enrichment falls from 0.985 to 0.57.

First: DSKIRYLSADS [TTF1_Y476_E473K]
Second: DVFLKYLNFAT [PDE6B_Y212]
The phosphorylation enrichment of the first is higher: 0.607 for the first, 0.44 for the second.

First: GIVEEYQLPYY [BMPR1A_Y453]
Second: EVESPYEVHDF [GIGYF2_Y1168_YF]
The phosphorylation enrichment of the first is lower: 0.642 for the first, 0.922 for the second.

First: NYYDTCIKTCL [IQGAP2_Y1445_Y1445C]
Second: LWPIWYRCHRP [MRGPRX1_Y130]
The phosphorylation enrichment of the first is higher: 2.32 for the first, 0.893 for the second.

Compared with MKGDYYRYLAE [YWHAG_Y131], SGGCSYGSGGG [KRT1_Y539_G537C] is lower in phosphorylation enrichment: 1.02 for the first, 0.478 for the second.

Compared with EYGSGYPNDPK [RNASEH2A_Y210_D205E], FLLTVYSIFSK [SGCE_Y38] is higher in phosphorylation enrichment: 0.458 for the first, 0.589 for the second.

Compared with DNQFAYLKAII [HNF4A_Y288_E285Q_YF], IVAEFYDNLPH [DEGS1_Y284_A280V_YF] is lower in phosphorylation enrichment: 0.595 for the first, 0.556 for the second.

Going from ENGPYYASYPP [GDAP2_Y488_T489A] to ELAKFYKLHHI [AK7_Y391_N389K_YF], the phosphorylation enrichment falls from 4.76 to 0.452.

First: DRLAVYIDRVS [LMNA_Y45_R50S]
Second: LKLIQYHLIQQ [AKAP4_Y554_T557I]
The phosphorylation enrichment of the first is lower: 0.5 for the first, 0.737 for the second.

Compared with KGNMYYENSYA [EGFR_Y113_R108K], KTDKKYLMIKE [BAG3_Y451_E455K] is lower in phosphorylation enrichment: 0.593 for the first, 0.439 for the second.

First: YRQLPYCPSVE [CTNND2_Y508_Q507P]
Second: AAVLNYKAWRD [GRIN2A_Y737_G740W]
The phosphorylation enrichment of the first is higher: 0.747 for the first, 0.276 for the second.

RFLERDIFNRE [HLA-DPB1_Y57_Y57D_YF] showed a phosphorylation enrichment of 0.569.

molecular target: Grb2 SH2 (UniProt P62993); experiment: SH2 binding enrichment of the phosphorylated peptide, bacterial display (enrichment ratio); higher = better substrate or ligand; peptides without Tyr show the background
Sequence (P62993 whole entry, looked up): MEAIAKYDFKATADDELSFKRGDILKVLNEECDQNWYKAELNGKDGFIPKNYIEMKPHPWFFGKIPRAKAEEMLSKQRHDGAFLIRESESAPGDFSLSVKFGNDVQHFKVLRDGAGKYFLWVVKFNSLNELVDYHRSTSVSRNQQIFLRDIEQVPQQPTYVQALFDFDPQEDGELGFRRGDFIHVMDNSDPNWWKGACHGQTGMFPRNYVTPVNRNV

Compared with MDDKEYFSVHN [MET_Y1234_Y1230D_YF], RNDLDYMDSRR [GAA_Y407_W402R] is higher in SH2 binding enrichment: 0.808 for the first, 0.971 for the second.

Going from PELINCHQHNS [BTK_Y361_Y361C] to KGVDRYNPENL [EIF3K_Y21_I18V], the SH2 binding enrichment falls from 1.01 to 0.643.

Going from ANVIRYFPTQA [SLC25A4_Y81] to STQAHYRLSAF [ADAMTS9_Y100_S96T], the SH2 binding enrichment falls from 1.09 to 0.759.

Compared with RIVEIYSRSLQ [GCH1_Y175_R178S], WQQQSYLFSGI [CTNNB1_Y30_D32Y_YF] is higher in SH2 binding enrichment: 0.944 for the first, 1.02 for the second.

Going from DSKIRYLSADS [TTF1_Y476_E473K] to DVFLKYLNFAT [PDE6B_Y212], the SH2 binding enrichment rises from 1.11 to 1.82.

Compared with GIVEEYQLPYY [BMPR1A_Y453], EVESPYEVHDF [GIGYF2_Y1168_YF] is lower in SH2 binding enrichment: 0.862 for the first, 0.785 for the second.

Compared with NYYDTCIKTCL [IQGAP2_Y1445_Y1445C], LWPIWYRCHRP [MRGPRX1_Y130] is higher in SH2 binding enrichment: 0.856 for the first, 1.09 for the second.

Going from MKGDYYRYLAE [YWHAG_Y131] to SGGCSYGSGGG [KRT1_Y539_G537C], the SH2 binding enrichment falls from 0.815 to 0.782.

Going from EYGSGYPNDPK [RNASEH2A_Y210_D205E] to FLLTVYSIFSK [SGCE_Y38], the SH2 binding enrichment rises from 0.8 to 2.05.

Compared with DNQFAYLKAII [HNF4A_Y288_E285Q_YF], IVAEFYDNLPH [DEGS1_Y284_A280V_YF] is lower in SH2 binding enrichment: 0.782 for the first, 0.727 for the second.

Going from ENGPYYASYPP [GDAP2_Y488_T489A] to ELAKFYKLHHI [AK7_Y391_N389K_YF], the SH2 binding enrichment falls from 0.729 to 0.646.

First: DRLAVYIDRVS [LMNA_Y45_R50S]
Second: LKLIQYHLIQQ [AKAP4_Y554_T557I]
The SH2 binding enrichment of the first is lower: 0.807 for the first, 1.51 for the second.

First: KGNMYYENSYA [EGFR_Y113_R108K]
Second: KTDKKYLMIKE [BAG3_Y451_E455K]
The SH2 binding enrichment of the first is higher: 10.2 for the first, 0.897 for the second.

First: YRQLPYCPSVE [CTNND2_Y508_Q507P]
Second: AAVLNYKAWRD [GRIN2A_Y737_G740W]
The SH2 binding enrichment of the first is lower: 0.686 for the first, 1.35 for the second.

RFLERDIFNRE [HLA-DPB1_Y57_Y57D_YF] gave an SH2 binding enrichment of 0.927.

molecular target: SHP2-C SH2; experiment: as above

Going from MDDKEYFSVHN [MET_Y1234_Y1230D_YF] to RNDLDYMDSRR [GAA_Y407_W402R], the SH2 binding enrichment rises from 0.443 to 0.552.

Going from PELINCHQHNS [BTK_Y361_Y361C] to KGVDRYNPENL [EIF3K_Y21_I18V], the SH2 binding enrichment falls from 0.919 to 0.592.

Compared with ANVIRYFPTQA [SLC25A4_Y81], STQAHYRLSAF [ADAMTS9_Y100_S96T] is higher in SH2 binding enrichment: 0.673 for the first, 0.859 for the second.

Compared with RIVEIYSRSLQ [GCH1_Y175_R178S], WQQQSYLFSGI [CTNNB1_Y30_D32Y_YF] is higher in SH2 binding enrichment: 0.701 for the first, 0.882 for the second.

Compared with DSKIRYLSADS [TTF1_Y476_E473K], DVFLKYLNFAT [PDE6B_Y212] is higher in SH2 binding enrichment: 0.682 for the first, 1.5 for the second.

First: GIVEEYQLPYY [BMPR1A_Y453]
Second: EVESPYEVHDF [GIGYF2_Y1168_YF]
The SH2 binding enrichment of the first is higher: 0.997 for the first, 0.832 for the second.

Going from NYYDTCIKTCL [IQGAP2_Y1445_Y1445C] to LWPIWYRCHRP [MRGPRX1_Y130], the SH2 binding enrichment rises from 0.706 to 1.06.

First: MKGDYYRYLAE [YWHAG_Y131]
Second: SGGCSYGSGGG [KRT1_Y539_G537C]
The SH2 binding enrichment of the first is lower: 0.568 for the first, 0.655 for the second.

Going from EYGSGYPNDPK [RNASEH2A_Y210_D205E] to FLLTVYSIFSK [SGCE_Y38], the SH2 binding enrichment rises from 0.626 to 1.93.

Going from DNQFAYLKAII [HNF4A_Y288_E285Q_YF] to IVAEFYDNLPH [DEGS1_Y284_A280V_YF], the SH2 binding enrichment rises from 0.62 to 0.695.

First: ENGPYYASYPP [GDAP2_Y488_T489A]
Second: ELAKFYKLHHI [AK7_Y391_N389K_YF]
The SH2 binding enrichment of the first is higher: 0.773 for the first, 0.747 for the second.

First: DRLAVYIDRVS [LMNA_Y45_R50S]
Second: LKLIQYHLIQQ [AKAP4_Y554_T557I]
The SH2 binding enrichment of the first is lower: 0.589 for the first, 4.15 for the second.

Compared with KGNMYYENSYA [EGFR_Y113_R108K], KTDKKYLMIKE [BAG3_Y451_E455K] is lower in SH2 binding enrichment: 1.05 for the first, 0.836 for the second.

Compared with YRQLPYCPSVE [CTNND2_Y508_Q507P], AAVLNYKAWRD [GRIN2A_Y737_G740W] is higher in SH2 binding enrichment: 0.585 for the first, 0.915 for the second.

RFLERDIFNRE [HLA-DPB1_Y57_Y57D_YF] showed an SH2 binding enrichment of 0.707.

molecular target: c-Src SH2; experiment: as above

First: MDDKEYFSVHN [MET_Y1234_Y1230D_YF]
Second: RNDLDYMDSRR [GAA_Y407_W402R]
The SH2 binding enrichment of the first is higher: 0.442 for the first, 0.422 for the second.

Going from PELINCHQHNS [BTK_Y361_Y361C] to KGVDRYNPENL [EIF3K_Y21_I18V], the SH2 binding enrichment falls from 0.641 to 0.465.

Going from ANVIRYFPTQA [SLC25A4_Y81] to STQAHYRLSAF [ADAMTS9_Y100_S96T], the SH2 binding enrichment falls from 0.64 to 0.513.

Going from RIVEIYSRSLQ [GCH1_Y175_R178S] to WQQQSYLFSGI [CTNNB1_Y30_D32Y_YF], the SH2 binding enrichment rises from 0.485 to 0.641.

First: DSKIRYLSADS [TTF1_Y476_E473K]
Second: DVFLKYLNFAT [PDE6B_Y212]
The SH2 binding enrichment of the first is lower: 0.426 for the first, 0.935 for the second.

First: GIVEEYQLPYY [BMPR1A_Y453]
Second: EVESPYEVHDF [GIGYF2_Y1168_YF]
The SH2 binding enrichment of the first is higher: 4.36 for the first, 0.486 for the second.

First: NYYDTCIKTCL [IQGAP2_Y1445_Y1445C]
Second: LWPIWYRCHRP [MRGPRX1_Y130]
The SH2 binding enrichment of the first is higher: 3.21 for the first, 0.416 for the second.

Going from MKGDYYRYLAE [YWHAG_Y131] to SGGCSYGSGGG [KRT1_Y539_G537C], the SH2 binding enrichment falls from 0.615 to 0.462.

Compared with EYGSGYPNDPK [RNASEH2A_Y210_D205E], FLLTVYSIFSK [SGCE_Y38] is higher in SH2 binding enrichment: 0.352 for the first, 1.38 for the second.

Compared with DNQFAYLKAII [HNF4A_Y288_E285Q_YF], IVAEFYDNLPH [DEGS1_Y284_A280V_YF] is higher in SH2 binding enrichment: 0.353 for the first, 0.931 for the second.

Going from ENGPYYASYPP [GDAP2_Y488_T489A] to ELAKFYKLHHI [AK7_Y391_N389K_YF], the SH2 binding enrichment falls from 0.632 to 0.414.

First: DRLAVYIDRVS [LMNA_Y45_R50S]
Second: LKLIQYHLIQQ [AKAP4_Y554_T557I]
The SH2 binding enrichment of the first is lower: 0.58 for the first, 2.22 for the second.

First: KGNMYYENSYA [EGFR_Y113_R108K]
Second: KTDKKYLMIKE [BAG3_Y451_E455K]
The SH2 binding enrichment of the first is higher: 4.96 for the first, 0.499 for the second.

Compared with YRQLPYCPSVE [CTNND2_Y508_Q507P], AAVLNYKAWRD [GRIN2A_Y737_G740W] is lower in SH2 binding enrichment: 0.494 for the first, 0.481 for the second.

For RFLERDIFNRE [HLA-DPB1_Y57_Y57D_YF], the SH2 binding enrichment was 0.565.
